From the supplement of paper PMC11908140

B1: library; numbered along this chain (parent)
chain: MRKPRAAVGSGHRKQAASQEGRQKHAKNNSQAKPSACDGLARQPEEVVLQASVSSYHLFRDVAEVTAFRGSLLSWYDQEKRDLPWRRRAEDEMDLDRRAYAVWVSEVMLQQTQVATVINYYTGWMQKWPTLQDLASASLEEVNQLWAGLGYYSRGRRLQEGARKVVEELGGHMPRTAETLQQLLPGVGRYTAGAIASIAFGQATGVVDGNVARVLCRVRAIGADPSSTLVSQQLWGLAQQLVDPARPGDFNQAAMELGATVCTPQRPLCSQCPVESLCRARQRVEQEQLLASGSLSGSPDVEECAPNTGQCHLCLPPSEPWDQTLGVVNFPRKASRKPPREESSATCVLEQPGALGAQILLVQRPNSGLLAGLWEFPSVTWEPSEQLQRKALLQELQRWAGPLPATHLRHLGEVVHTFSHIKLTYQVYGLALEGQTPVTTVPPGARWLTQEEFHTAAVSTAMKKVFRVYQGQQPGTCMGSKRSQVSSPCSRKKPRMGQQVLDNFFRSHISTDAHSLNSAAQ
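Note: cells sorted at 72 h after reporter transfection.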

Variants of: B1
Experiment: 8OG:A repair function score (normalized; synonymous = 0, nonsense = -1) (normalized log-likelihood score); higher = more repair activity (WT-like)
Details: with 8OG:A DNA repair reporter (GFP) in HEK-293 MUTYH KO cells
Procedure, shortened: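 Per-tile Rosace fitness scores were converted to a normalized repair function score anchored on synonymous and nonsense distributions. That scale puts synonymous medians at 0 and nonsense medians at -1. Variants with starting counts under 300 counts per million were discarded. Input came from sorting viable mCherry+ MUTYH knockout HEK-293 cells, carrying lentiviral MUTYH cDNA NNN codon-scan libraries in 10 pg/ml doxycycline and an 8OG:A GFP repair reporter, into GFP+ and GFP− bins at 72 h, three replicates per tile, followed by tile amplicon sequencing.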
S55N was tested, and the “8OG:A repair function score” value was 0.00188. With Q78A the “8OG:A repair function score” value was -0.00817. R154H was tested, and the “8OG:A repair function score” value was -0.851. For G222A, the “8OG:A repair function score” value was -0.213. V415Y was tested, and the “8OG:A repair function score” value was -0.275. L73K was tested, and the “8OG:A repair function score” value was -0.453. For A220H, the “8OG:A repair function score” value was -0.555. With P264S the “8OG:A repair function score” value was -0.0872. In the case of P306S, the “8OG:A repair function score” value is reported as -0.0289. G209H was tested, and the “8OG:A repair function score” value was -0.659. In the case of H57T, the “8OG:A repair function score” value is reported as -0.765. In the case of H508A, the “8OG:A repair function score” value is reported as -0.00475. With A280H the “8OG:A repair function score” value was -0.731. For L241M, the “8OG:A repair function score” value was -0.522. For L241V, the “8OG:A repair function score” value was -0.358. With L241H the “8OG:A repair function score” value was -1.01. In the case of P331M, the “8OG:A repair function score” value is reported as -0.254. With P331I the “8OG:A repair function score” value was -0.596. V438C was tested, and the “8OG:A repair function score” value was 0.134. L289W was tested, and the “8OG:A repair function score” value was -0.0271. For A519S, the “8OG:A repair function score” value was 0.00395. Q252L was tested, and the “8OG:A repair function score” value was -0.863. For I118H, the “8OG:A repair function score” value was 0.000662. In the case of V379C, the “8OG:A repair function score” value is reported as -0.214. R266L was tested, and the “8OG:A repair function score” value was -0.152. G155K was tested, and the “8OG:A repair function score” value was -0.654. In the case of G155T, the “8OG:A repair function score” value is reported as -0.218. For G155D, the “8OG:A repair function score” value was -0.75. With C262G the “8OG:A repair function score” value was -1. With D82W the “8OG:A repair function score” value was -0.00177. In the case of A391W, the “8OG:A repair function score” value is reported as -0.428. In the case of A391T, the “8OG:A repair function score” value is reported as -0.42. L370R was tested, and the “8OG:A repair function score” value was -0.775. L370F was tested, and the “8OG:A repair function score” value was -0.461. A291V was tested, and the “8OG:A repair function score” value was -0.0187. For K422H, the “8OG:A repair function score” value was -0.22. With L501G the “8OG:A repair function score” value was 0.00711. For P44A, the “8OG:A repair function score” value was -0.142. With T263N the “8OG:A repair function score” value was -0.0422. With R364E the “8OG:A repair function score” value was -0.504. E452V was tested, and the “8OG:A repair function score” value was -0.351. For E452R, the “8OG:A repair function score” value was -0.0533. For A400C, the “8OG:A repair function score” value was -0.215. A400I was tested, and the “8OG:A repair function score” value was -0.319. A400M was tested, and the “8OG:A repair function score” value was 0.54. In the case of N503C, the “8OG:A repair function score” value is reported as 0.00549. D249F was tested, and the “8OG:A repair function score” value was -0.75. For R482C, the “8OG:A repair function score” value was 0.0254. In the case of Q323N, the “8OG:A repair function score” value is reported as 0.061. F505L was tested, and the “8OG:A repair function score” value was 0.0157. With A137I the “8OG:A repair function score” value was -0.286. In the case of V230R, the “8OG:A repair function score” value is reported as -0.524. With V104S the “8OG:A repair function score” value was -0.759. For R175N, the “8OG:A repair function score” value was -0.0345. In the case of R175H, the “8OG:A repair function score” value is reported as -0.116. R175G was tested, and the “8OG:A repair function score” value was -0.166. In the case of A345T, the “8OG:A repair function score” value is reported as -0.111. For A345R, the “8OG:A repair function score” value was -0.408. With I359T the “8OG:A repair function score” value was 0.0861. For V284R, the “8OG:A repair function score” value was -0.149. V328I was tested, and the “8OG:A repair function score” value was -0.0358. In the case of V328A, the “8OG:A repair function score” value is reported as -0.0621. For V328G, the “8OG:A repair function score” value was -0.0273. L183F was tested, and the “8OG:A repair function score” value was -0.0771. For L183G, the “8OG:A repair function score” value was -0.0301. For A199T, the “8OG:A repair function score” value was -0.214. In the case of A199W, the “8OG:A repair function score” value is reported as -0.8. For S378L, the “8OG:A repair function score” value was -0.171. For A192K, the “8OG:A repair function score” value was -1.07. V458I was tested, and the “8OG:A repair function score” value was -0.0811. For L355H, the “8OG:A repair function score” value was -0.0638. For L355E, the “8OG:A repair function score” value was 0.0516. For S384C, the “8OG:A repair function score” value was -0.202. For P299I, the “8OG:A repair function score” value was -0.00528. For P443Y, the “8OG:A repair function score” value was -0.0335. With G372A the “8OG:A repair function score” value was -0.461. With R491C the “8OG:A repair function score” value was -0.013. In the case of I509W, the “8OG:A repair function score” value is reported as -0.00561. V114S was tested, and the “8OG:A repair function score” value was -0.184. In the case of V114M, the “8OG:A repair function score” value is reported as -1.07. With P174C the “8OG:A repair function score” value was -0.583. C278V was tested, and the “8OG:A repair function score” value was -1.16. In the case of E64A, the “8OG:A repair function score” value is reported as -0.0113. In the case of E385F, the “8OG:A repair function score” value is reported as -0.34. With E385I the “8OG:A repair function score” value was 0.197. With E385D the “8OG:A repair function score” value was 0.0907. With Q363G the “8OG:A repair function score” value was -0.38. E90C was tested, and the “8OG:A repair function score” value was -0.00217. With A405T the “8OG:A repair function score” value was -0.128. With W85Q the “8OG:A repair function score” value was -1.14. With T449A the “8OG:A repair function score” value was 0.0699. V53L was tested, and the “8OG:A repair function score” value was -0.024. For S136P, the “8OG:A repair function score” value was -0.137. For W321S, the “8OG:A repair function score” value was -0.257. In the case of W321K, the “8OG:A repair function score” value is reported as -0.189. For Y76G, the “8OG:A repair function score” value was -1.14. R279Y was tested, and the “8OG:A repair function score” value was -0.151. In the case of R279T, the “8OG:A repair function score” value is reported as -0.339. M173E was tested, and the “8OG:A repair function score” value was -1.13. For P404E, the “8OG:A repair function score” value was 0.341. G170D was tested, and the “8OG:A repair function score” value was 0.0788. In the case of G170T, the “8OG:A repair function score” value is reported as -0.248. In the case of L40C, the “8OG:A repair function score” value is reported as -0.0146. In the case of P488W, the “8OG:A repair function score” value is reported as -0.00344. With P488F the “8OG:A repair function score” value was -0.042. With P317F the “8OG:A repair function score” value was -0.125. L393W was tested, and the “8OG:A repair function score” value was -0.266. In the case of L393G, the “8OG:A repair function score” value is reported as -0.22. For V187L, the “8OG:A repair function score” value was -0.609. With R336K the “8OG:A repair function score” value was -0.0529. For L72C, the “8OG:A repair function score” value was -0.229. For L313P, the “8OG:A repair function score” value was -0.504. For L313V, the “8OG:A repair function score” value was -0.213. In the case of A41I, the “8OG:A repair function score” value is reported as 0.0909. In the case of A41K, the “8OG:A repair function score” value is reported as -0.0537. With A223Y the “8OG:A repair function score” value was -0.608. With Q473E the “8OG:A repair function score” value was -0.021. K3M was tested, and the “8OG:A repair function score” value was -0.238. For K3E, the “8OG:A repair function score” value was -0.174. V485E was tested, and the “8OG:A repair function score” value was -0.0478. In the case of L430M, the “8OG:A repair function score” value is reported as -0.448. A354V was tested, and the “8OG:A repair function score” value was 0.0356. With V62R the “8OG:A repair function score” value was -0.00306. With D224F the “8OG:A repair function score” value was -0.955. With R81C the “8OG:A repair function score” value was -1.02. For G297C, the “8OG:A repair function score” value was 0.00942. With N119E the “8OG:A repair function score” value was -0.069. L448F was tested, and the “8OG:A repair function score” value was -0.205. With Q181W the “8OG:A repair function score” value was -0.337. For E167F, the “8OG:A repair function score” value was 0.0154. K164I was tested, and the “8OG:A repair function score” value was 0.0586. With K164L the “8OG:A repair function score” value was 0.0383. S298D was tested, and the “8OG:A repair function score” value was -0.0341. S298Y was tested, and the “8OG:A repair function score” value was -0.0154. E106Y was tested, and the “8OG:A repair function score” value was -1.24. In the case of M125T, the “8OG:A repair function score” value is reported as -0.339. In the case of M125A, the “8OG:A repair function score” value is reported as -0.557. With M125I the “8OG:A repair function score” value was -0.0973. In the case of M108G, the “8OG:A repair function score” value is reported as -1.18. For H410P, the “8OG:A repair function score” value was -0.371. With L408E the “8OG:A repair function score” value was -1.61. With L408G the “8OG:A repair function score” value was -0.81. With V65D the “8OG:A repair function score” value was -0.226. With P267V the “8OG:A repair function score” value was -0.195. For P267N, the “8OG:A repair function score” value was -0.863. In the case of N143D, the “8OG:A repair function score” value is reported as -0.456. Y56D was tested, and the “8OG:A repair function score” value was -0.0985. In the case of A357C, the “8OG:A repair function score” value is reported as 0.0134. With G326D the “8OG:A repair function score” value was -0.344. With D91Q the “8OG:A repair function score” value was -0.103. With D91P the “8OG:A repair function score” value was -0.0949. In the case of L369H, the “8OG:A repair function score” value is reported as -0.345. For P129C, the “8OG:A repair function score” value was -0.403. In the case of L277F, the “8OG:A repair function score” value is reported as 0.00162. For E46R, the “8OG:A repair function score” value was 0.0933. In the case of T439G, the “8OG:A repair function score” value is reported as 0.107. T439K was tested, and the “8OG:A repair function score” value was 0.00137. With S71E the “8OG:A repair function score” value was -0.0479. With S71W the “8OG:A repair function score” value was 0.000735. For D300I, the “8OG:A repair function score” value was -0.191. For A238C, the “8OG:A repair function score” value was -0.249. In the case of A238D, the “8OG:A repair function score” value is reported as -0.714. For A238P, the “8OG:A repair function score” value was -1.01. For Q521R, the “8OG:A repair function score” value was -0.0139. In the case of R219L, the “8OG:A repair function score” value is reported as -0.542. For R219K, the “8OG:A repair function score” value was -0.381. In the case of E140A, the “8OG:A repair function score” value is reported as -0.0255.
